Test [1] addresses AE.A244gp120 (HIV-1). The experiment in a line: SPR. The following applies: both partners purified.
Test [2] deals with AE.A244gp120 (HIV-1). The experiment in a line: ELISA; blocking ELISA; AE.A244gp120 on the plate; mAbs diluted 3-fold from 100 ug/mL added for 1 h, wash, biotinylated VRC01 or CH31 for 1 h, streptavidin-HRP. The following applies: both partners purified. On the technique in general: In an ELISA, binding on a coated surface is turned into a signal by an enzyme label.

B1: DH576 Unmutated Common Ancestor (UCA) (antibody, V domains shown)
VH: QVQLVESGGGVVQPGRSLRLSCAASGFTFSSYGMHWVRQAPGKGLEWVAVISYDGSNKYYADSVKGRFTISRDNSKNTLYLQMNSLRAEDTAVYYCARDRARSSGYFGGIYYYYYGMDVWGQGTTVTVSS
VL: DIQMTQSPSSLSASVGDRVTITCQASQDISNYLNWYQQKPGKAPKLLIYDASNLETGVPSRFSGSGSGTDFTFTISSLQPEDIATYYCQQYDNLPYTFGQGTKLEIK
notes: also called DH576 UCA; UCA of DH576; source: recombinantly expressed
Take B1: in the test with AE.A244gp120 [1], the binding result is “binds”.

B2: VRC01 (antibody, V domains shown)
VH: QVQLVQSGGQMKKPGESMRISCRASGYEFIDCTLNWIRLAPGKRPEWMGWLKPRGGAVNYARPLQGRVTMTRDVYSDTAFLELRSLTVDDTAVYFCTRGKNCDYNWDFEHWGRGTPVIVSS
VL: EIVLTQSPGTLSLSPGETAIISCRTSQYGSLAWYQQRPGQAPRLVIYSGSTRAAGIPDRFSGSRWGPDYNLTISNLESGDFGVYYCQQYEFFGQGTKVQVD
notes: also called CD4 bs bnAb VRC01
Consider B2, for which the binding result with AE.A244gp120 [2] is listed as “binds”.

For the origin of these results see article PMC5342261, “Boosting of HIV envelope CD4 binding site antibodies with long variable heavy third complementarity determining region in the randomized double blind RV305 HIV-1 vaccine trial” (PLoS Pathogens, 2017).
